The labels stand for the following.
B1: Protein EAP1 (Saccharomyces cerevisiae), P36041 (parent)
chain: MELNDPSIISSSQFSGELSDSDTAAATHKSQQAISNLFQKLAKKGREEKPIGSVESSTDSSNISVATSGNNKESNKKKNKKTAMLNFSSLTDPITNYKPMDLQYKTYAYSMNELYHLKPSLASASYEEDPLISELVRSLPKRKFWRLRMGPPDQKHANNHHFNGNNGGGSWKAGYKNGKNDERRMSRTKNMQGGKRRSQQDDEEKKIDQEMLEMDKNLQLGGDVGHSIADFEDWKAKMKELELKKLSKSKGISNSTAIAPRESASHETPTDLRPVIPRGPSSITDFLNLKRQDKKEESSQQTPGIPVGQPSLSKTSIEQVNELETNSDLGKSSSSRFSSFFNKSATSLPSLDNNNQVPSSNVSVVNNDGNSTPHQSGSRLMSFFKESRSSTPNAESQLLSASDKDNGKMQTLPQFQQQPQQMQPMAFTQHPPNNNAFFNGLLNKGKSETSTPPPPPPGLIAHQGPQFPVMGVPPNFPQRMMPPPPGLVQFQKDSKDVNKKEDRQLRQNKNPNGTRNSKGKQEETATPDLPQQQYMPPPPPPGFFPMHPNFPNGPMPPLPQGFPIPPNGMLPVTGQQPQPPYPNMMLQGNFPPNFQQGFGSNSPMPIPSIINANGKNVTNQLPPGLNSKKNIK
partner: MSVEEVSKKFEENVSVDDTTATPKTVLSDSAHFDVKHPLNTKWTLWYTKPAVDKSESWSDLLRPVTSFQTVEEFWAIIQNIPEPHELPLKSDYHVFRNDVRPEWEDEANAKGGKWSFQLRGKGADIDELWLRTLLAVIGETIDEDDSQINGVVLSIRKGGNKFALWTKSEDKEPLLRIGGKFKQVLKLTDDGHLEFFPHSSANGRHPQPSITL

The results in this text go back to IntAct's records for PubMed 15848184.

The assay covers variants of B1. The note with it: with if4e_yeast CDC33, P07260.
Turning to Y109A;L114A, the “effect of a mutation on the interaction” value is on record as “disrupting interaction”. Consider Y109A, for which the “effect of a mutation on the interaction” value is reported as “disrupting interaction”.
